From the supplement of paper PMC10057847, “Precision engineering of biological function with large-scale measurements and machine learning” (PLOS ONE, 2023)
Several values for one entry are separate records, joined by “and”; a condition that tells them apart may be missing. Equal entries are not always repeated. ± gives the uncertainty stated by the source.

B1: library; the commonest letter at each place (parent)
chain: MKPVTLYDVAEYAGVSYQTVSRVVNQASHVSAKTREKVEAAMAELNYIPNRVAQQLAGKQSLLIGVATSSLALHAPSQIVAAIKSRADQLGASVVVSMVERSGVEACKAAVHNLLAQRVSGLIINYPLDDQDAIAVEAACTNVPALFLDVSDQTPINSIIFSHEDGTRLGVEHLVALGHQQIALLAGPLSSVSARLRLAGWHKYLTRNQIQPIAEREGDWSAMSGFQQTMQMLNEGIVPTAMLVANDQMALGAMRAITESGLRVGADISVVGYDDTEDSSCYIPPLTTIKQDFRLLGQTSVDRLLQLSQGQAVKGNQLLPVSLVKRKTTLAPNTQTASPRALADSLMQLARQVSRLESGQ

Legend:
Conditions in all cases: with IPTG
IPTG [1] = variants of: B1
Protocol: (§1)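 LacI variants on the pVER plasmid regulate eYFP behind lacO in E. coli MG1655Δlac, grown in rich M9 at 37 °C with a 2-fold IPTG dilution series. After two 160-min growth steps, YFP is read by flow cytometry and calibrated to MEF. Bayesian MCMC fits of the Hill equation give G0, G∞, EC50 and n (posterior mean ± SD).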

IPTG [2] = variants of: B1; assay: Hill coefficient n (dimensionless); higher = steeper dose response
Protocol: as §1

IPTG [3] = variants of: B1; assay: basal output G0 (YFP, no IPTG) (log10 MEF); higher = higher reporter expression without inducer
Protocol: as §1

IPTG [4] = variants of: B1; assay: saturating output G-infinity (YFP) (log10 MEF); higher = higher reporter expression at saturating IPTG
Protocol: as §1

Variant	EC50 for IPTG (log10 µmol/L) (IPTG [1])	Hill coefficient n (IPTG [2])	basal output G0 (log10) (IPTG [3])	saturating output G-infinity (log10) (IPTG [4])
A27T A87T S102G N316I L330P Q352R	1.04 ± 0.011	1.44 ± 0.038	3.624 ± 0.013	4.5229 ± 0.003
V24L V52M A72T A214V I268V K325Q P332H A337V	1.467 ± 0.0061	1.59 ± 0.03	2.62 ± 0.054	4.2255 ± 0.002
S70R V150A S190T F226L	0.971 ± 0.021	1.48 ± 0.089	3.37 ± 0.035	4.221 ± 0.0049
V80L I83M S97T	1.986 ± 0.0056	1.55 ± 0.025	1.99 ± 0.077	3.8535 ± 0.0021
Q55H D130E V192A T258I D267N Y273H N333I	2.889 ± 0.028	1.39 ± 0.097	4.402 ± 0.0063	3.681 ± 0.016
S70R S97T	1.16 ± 0.037	1.37 ± 0.1	3.15 ± 0.062	4.362 ± 0.012
M42I R51C	1.496 ± 0.014	1.6 ± 0.058	3.21 ± 0.035	4.511 ± 0.0051
T68I	1.41 ± 0.045	1.28 ± 0.1	3.24 ± 0.054	4.419 ± 0.015
V80L L169P	2.47 ± 0.026	1.2 ± 0.077	1.86 ± 0.58	3.696 ± 0.0083
L56M A194V	2.393 ± 0.016	1.42 ± 0.045	3.9036 ± 0.0036	4.549 ± 0.0059
S69T V80L	1.75 ± 0.025	1.38 ± 0.066	1.09 ± 0.68	4.182 ± 0.0044
S69T I83M	2.293 ± 0.009	1.48 ± 0.033	1.02 ± 0.61	4.2699 ± 0.0031
S70R Q231R	1.509 ± 0.0064	1.47 ± 0.025	2.67 ± 0.037	4.251 ± 0.0022
I83F G200C	1.913 ± 0.0091	1.48 ± 0.032	3.03 ± 0.023	4.4658 ± 0.0031
V80L A87P V301M E357G	1.57 ± 0.045	1.15 ± 0.079	4.52 ± 0.015	3.493 ± 0.02
E11K A67P F161S A186V M230L D344N	0.815 ± 0.031	1.44 ± 0.11	3.548 ± 0.033	4.236 ± 0.006
K84E D88Y L90P Q153L A199V L342M R351P S358R	1.47 ± 0.046	0.795 ± 0.045	4.34 ± 0.01	3.722 ± 0.01
E11K A27G K37N H112L A139V S191P	2.26 ± 0.028	1.4 ± 0.06	3.373 ± 0.0099	4.426 ± 0.012
I83M S97T V136E	2.29 ± 0.05	0.765 ± 0.058	4.52 ± 0.0074	4.113 ± 0.012
A72V A110V N142D S322L	0.557 ± 0.022	1.42 ± 0.1	3.778 ± 0.015	4.443 ± 0.0049
P76Q V150A N157D Q181H I210L M254T I283N	2.23 ± 0.046	1.11 ± 0.11	4.237 ± 0.007	3.925 ± 0.008
I83M V136E	1.48 ± 0.029	1.21 ± 0.075	4.519 ± 0.0083	3.789 ± 0.011
H74Y A92V H112L S151T D165N H179Q	1.29 ± 0.014	1.54 ± 0.049	4.426 ± 0.0049	3.262 ± 0.017
S70R S190C	1.547 ± 0.0043	1.47 ± 0.017	2.64 ± 0.029	4.2816 ± 0.0016

Variant	EC50 for IPTG (log10 µmol/L) (IPTG [1])	Hill coefficient n (IPTG [2])	basal output G0 (log10) (IPTG [3])	saturating output G-infinity (log10) (IPTG [4])
S70R Q181H	1.49 ± 0.03	1.46 ± 0.12	2.55 ± 0.62	4.269 ± 0.011
A72V K84N I210F M254T T336S	0.962 ± 0.049	0.934 ± 0.078	4.369 ± 0.0082	4.067 ± 0.0058
V80L I83M	2.444 ± 0.013	1.37 ± 0.045	0.521 ± 0.46	3.718 ± 0.0043
S70R F161V	2.02 ± 0.013	1.29 ± 0.039	3.01 ± 0.037	4.3852 ± 0.0042
S70R V96E T154I S158R V238D M254I V264I	3.671 ± 0.018	3 ± 0.23	4.516 ± 0.0061	3.396 ± 0.026
I64V V95M Q131R T141A D152E N208I A222T L295M K327N	0.469 ± 0.011	1.55 ± 0.075	3.589 ± 0.011	4.4894 ± 0.0031
V80L S279T	1.566 ± 0.0048	1.56 ± 0.023	2.07 ± 0.088	3.9365 ± 0.0017
S69T S97T	1.37 ± 0.019	1.55 ± 0.059	2.65 ± 0.11	4.496 ± 0.0072
S70R A87P V301M E357G	3.59 ± 0.015	1.66 ± 0.081	4.5727 ± 0.004	3.672 ± 0.019
L62M A109V D149E M242V P285S Q317R	2.91 ± 0.051	1.37 ± 0.066	2.56 ± 0.042	4.412 ± 0.028
A87P V301M E357G	2.37 ± 0.024	1.18 ± 0.053	4.51 ± 0.0073	3.619 ± 0.014
S69F	1.05 ± 0.042	1.51 ± 0.14	2.66 ± 0.67	4.379 ± 0.015
S69T	1.7 ± 0.018	1.64 ± 0.06	2.07 ± 0.53	4.406 ± 0.0077
S70R V136E	1.841 ± 0.017	1.69 ± 0.085	4.55 ± 0.0061	3.806 ± 0.01
S70R V271M	1.521 ± 0.012	1.46 ± 0.044	2.7 ± 0.066	4.268 ± 0.0045
S70R S97T F161V	1.71 ± 0.068	1.16 ± 0.12	3.29 ± 0.059	4.429 ± 0.023
E44D R101G R303S R355L	1.62 ± 0.023	1.53 ± 0.093	2.44 ± 0.76	4.461 ± 0.0089
S70R N208Y	1.444 ± 0.0064	1.46 ± 0.026	2.66 ± 0.045	4.2522 ± 0.0022
V80L V96E T154I S158R V238D M254I V264I	1.68 ± 0.055	1.16 ± 0.085	4.207 ± 0.016	3.07 ± 0.031
S28G T34M Q60R A81S E100K L148V S221N V271L	0.477 and 0.475	1.41 and 2.02	3.92	4.46 and 4.41
S69F V95A A110E I159S	1.109 ± 0.01	1.64 ± 0.055	2.8 ± 0.081	4.2252 ± 0.003
A82V	1.93 ± 0.025	1.51 ± 0.075	1.71 ± 0.7	4.252 ± 0.01
A82G	2.576 ± 0.011	1.3 ± 0.021	2.51 ± 0.036	4.414 ± 0.0045
E39D N208D A222V	1.37 ± 0.022	1.55 ± 0.079	3.1 ± 0.043	4.484 ± 0.0081

Variant	EC50 for IPTG (log10 µmol/L) (IPTG [1])	Hill coefficient n (IPTG [2])	basal output G0 (log10) (IPTG [3])	saturating output G-infinity (log10) (IPTG [4])
I83M S97T	2.18 ± 0.046	1.52 ± 0.16	1.25 ± 0.81	4.399 ± 0.017
R51C	0.988 ± 0.036	1.44 ± 0.14	3.91 ± 0.021	4.49 ± 0.0086
R51H	1.19 ± 0.02	1.46 ± 0.061	3.701 ± 0.013	4.63 ± 0.0066
M42L V66I S93N D132V	1.646 ± 0.0068	1.59 ± 0.033	2.55 ± 0.058	4.1768 ± 0.0024
S77P E105V	2.049 ± 0.0095	1.59 ± 0.043	2.53 ± 0.067	4.1995 ± 0.004
V15I F161I A266T K290R M347I	2.85 ± 0.076	1.46 ± 0.13	3.111 ± 0.019	4.369 ± 0.043
K2R A92V R195P D278G	2.91 ± 0.042	2.03 ± 0.12	3.086 ± 0.01	4.436 ± 0.04
V80L S97T	1.611 ± 0.0061	1.57 ± 0.031	2.33 ± 0.069	4.0264 ± 0.0022
V9I R255C E259D T336I R355Q	1.05 ± 0.014	1.38 ± 0.044	3.374 ± 0.028	4.5116 ± 0.0042
Q55K G121V N333I	1.78 ± 0.031	1.58 ± 0.092	2.37 ± 0.36	4.393 ± 0.012
E36V Q89H D132G A138D E277A Q306E S322T	2.315 ± 0.02	1.54 ± 0.044	2.12 ± 0.15	4.363 ± 0.01
S69T I83M S97T	1.957 ± 0.0053	1.61 ± 0.017	1.17 ± 0.54	4.4073 ± 0.0024
S69T L169P	2.348 ± 0.019	1.43 ± 0.062	2.68 ± 0.082	4.362 ± 0.0071
V80L	2.098 ± 0.0098	1.52 ± 0.036	1.75 ± 0.28	3.914 ± 0.0043
S69T S279T	1.28 ± 0.013	1.56 ± 0.053	2.7 ± 0.11	4.428 ± 0.0047
L56M D130E	0.886 ± 0.058	1.42 ± 0.21	4.026 ± 0.027	4.51 ± 0.011
L56M Q317L	1.07 ± 0.085	1.44 ± 0.3	3.96 ± 0.044	4.485 ± 0.018
S70R I83F	1.24 ± 0.028	1.36 ± 0.079	3.18 ± 0.04	4.347 ± 0.0092
M42I	2.437 ± 0.015	1.43 ± 0.046	0.821 ± 0.6	4.148 ± 0.0056
I83M	2.555 ± 0.019	1.48 ± 0.049	1.45 ± 0.61	4.268 ± 0.0077
I83F	1.29 ± 0.02	1.43 ± 0.06	2.91 ± 0.064	4.434 ± 0.0071
Q60R N113S R207G R216G V271M L307I A350T	2.236 ± 0.011	1.62 ± 0.029	2.28 ± 0.058	4.401 ± 0.0051
L56M	1.05 ± 0.033	1.39 ± 0.12	3.976 ± 0.018	4.548 ± 0.0075
S70R	1.42 ± 0.021	1.44 ± 0.064	2.58 ± 0.09	4.22 ± 0.0077
